Assay results: the supplement of paper PMC10567573

B1: SPOPL (parent)
chain: YTGRAPNLDKMADNLLAAADKYAL

Variants of: B1
Experiment: protein stability index of a GFP-peptide fusion (GPS, HEK-293T) (PSI 1-6); higher = more stable
Conditions: c terminus: a fixed tail appended
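Note: lentivirally expressed fusions sorted by FACS into six bins by GFP to DsRed ratio, PSI derived from sequencing read proportions per bin multiplied by bin number.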

Variant | protein stability index
YTGRAPNLDKMADNLAAAADKYAL [L16A] | 2.24
YTGRAPNLDKMADNLPAAADKYAL [L16P] | 2.32
YTGRAPNLDKMADNLRAAADKYAL [L16R] | 2.65
YTGRAPNLDKMADNLIAAADKYAL [L16I] | 2.33
YTGRAPNLDKMADNLCAAADKYAL [L16C] | 1.59
YTGRAPNLDKMADNLHAAADKYAL [L16H] | 2.97
YTGRAPNLDKMADNLFAAADKYAL [L16F] | 1.22
YTGRAPNLDKMADNLVAAADKYAL [L16V] | 2.2
YTGRAPNLDKMADNLGAAADKYAL [L16G] | 2.94
YTGRAPNLDKMADNLYAAADKYAL [L16Y] | 2.06
YTGRAPNLDKMADNLNAAADKYAL [L16N] | 2.22
YTGRAPNLDKMADNLTAAADKYAL [L16T] | 3.25
YTGRAPNLDKMADNLDAAADKYAL [L16D] | 3.83
YTGRAPNLDKMADNLSAAADKYAL [L16S] | 1.84
YTGRAPNLDKMADNLKAAADKYAL [L16K] | 3.18
YTGRAPNLDKMADNLMAAADKYAL [L16M] | 2.37
YTGRAPNLDKMADNLEAAADKYAL [L16E] | 3.22
YTGRAPNLDKMADNLQAAADKYAL [L16Q] | 2.73
YTGRAPNLDKMADNLLAAADKYAA [L24A] | 2.02
YTGRAPNLDKMADNLLAAADKYAM [L24M] | 2.33
YTGRAPNLDKMADNLLAAADKYAK [L24K] | 2.55
YTGRAPNLDKMADNLLAAADKYAD [L24D] | 3.62
YTGRAPNLDKMADNLLAAADKYAI [L24I] | 2.02
YTGRAPNLDKMADNLLAAADKYAF [L24F] | 2.01

Variant | protein stability index
YTGRAPNLDKMADNLLAAADKYAH [L24H] | 2.49
YTGRAPNLDKMADNLLAAADKYAE [L24E] | 3.11
YTGRAPNLDKMADNLLAAADKYAN [L24N] | 2.66
YTGRAPNLDKMADNLLAAADKYAC [L24C] | 2.37
YTGRAPNLDKMADNLLAAADKYAP [L24P] | 2.17
YTGRAPNLDKMADNLLAAADKYAG [L24G] | 2.78
YTGRAPNLDKMADNLLAYADKYAL [A18Y] | 2.25
YTGRAPNLDKMADNLLASADKYAL [A18S] | 2.18
YTGRAPNLDKMADNLLADADKYAL [A18D] | 2.62
YTGRAPNLDKMADNLLAFADKYAL [A18F] | 1.77
YTGRAPNLDKMADNLLAVADKYAL [A18V] | 2.31
YTGRAPNLDKMADNLLAQADKYAL [A18Q] | 3.07
YTGRAPNLDKMADNLLAMADKYAL [A18M] | 1.9
YTGRAPNLDKMADNLLAEADKYAL [A18E] | 2.42
YTGRAPNLDKMADNLLALADKYAL [A18L] | 2.7
YTGRAPNLDKMADNLLACADKYAL [A18C] | 1.51
YTGRAPNLDKMADNLLARADKYAL [A18R] | 1.56
YTGRAPNLDKMADNLLAKADKYAL [A18K] | 1.77
YTGRAPNLDKMADNLLATADKYAL [A18T] | 1.99
YTGRAPNLDKMADNLLAPADKYAL [A18P] | 2.18
YTGRAPNLDKMADNLLAHADKYAL [A18H] | 1.96
YTGRAPNLDKMADNLLAWADKYAL [A18W] | 2.62
YTGRAPNLDKMADNLLANADKYAL [A18N] | 2.01
YTGRAPNLDKMADNLLAIADKYAL [A18I] | 1.42

Variant | protein stability index
YTGRAPNLDKMADNLLAGADKYAL [A18G] | 2.61
YTGRAPNLDKMADNPLAAADKYAL [L15P] | 2.43
YTGRAPNLDKMADNILAAADKYAL [L15I] | 2.25
YTGRAPNLDKMADNTLAAADKYAL [L15T] | 2.32
YTGRAPNLDKMADNVLAAADKYAL [L15V] | 2.14
YTGRAPNLDKMADNMLAAADKYAL [L15M] | 2.19
YTGRAPNLDKMADNHLAAADKYAL [L15H] | 2.38
YTGRAPNLDKMADNCLAAADKYAL [L15C] | 2.87
YTGRAPNLDKMADNELAAADKYAL [L15E] | 2.92
YTGRAPNLDKMADNSLAAADKYAL [L15S] | 3.6
YTGRAPNLDKMADNNLAAADKYAL [L15N] | 2.74
YTGRAPNLDKMADNRLAAADKYAL [L15R] | 2.43
YTGRAPNLDKMADNGLAAADKYAL [L15G] | 2.35
YTGRAPNLDKMADNQLAAADKYAL [L15Q] | 2.96
YTGRAPNLDKMADNDLAAADKYAL [L15D] | 2.83
YTGRAPNLDKMADNWLAAADKYAL [L15W] | 1.93
YTGRAPNLDKMADNYLAAADKYAL [L15Y] | 1.98
YTGRAPNLDKMADNKLAAADKYAL [L15K] | 3.64
YTGRAPNLDKMADNFLAAADKYAL [L15F] | 2.23
YTGRAPNLDKMADPLLAAADKYAL [N14P] | 2.2
YTGRAPNLDKMADHLLAAADKYAL [N14H] | 1.94
YTGRAPNLDKMADSLLAAADKYAL [N14S] | 2.38
YTGRAPNLDKMADRLLAAADKYAL [N14R] | 2.39
YTGRAPNLDKMADTLLAAADKYAL [N14T] | 1.45

Variant | protein stability index
YTGRAPNLDKMADFLLAAADKYAL [N14F] | 1.84
YTGRAPNLDKMADDLLAAADKYAL [N14D] | 2.25
YTGRAPNLDKMADALLAAADKYAL [N14A] | 1.69
YTGRAPNLDKMADYLLAAADKYAL [N14Y] | 1.86
YTGRAPNLDKMADWLLAAADKYAL [N14W] | 1.45
YTGRAPNLDKMADELLAAADKYAL [N14E] | 2.16
YTGRAPNLDKMADVLLAAADKYAL [N14V] | 2.43
YTGRAPNLDKMADGLLAAADKYAL [N14G] | 2.05
YTGRAPNLDKMADILLAAADKYAL [N14I] | 1.85
YTGRAPNLDKMADMLLAAADKYAL [N14M] | 2.37
YTGRAPNLDKMADKLLAAADKYAL [N14K] | 1.73
YTGRAPNLDKMADQLLAAADKYAL [N14Q] | 2.01
YTGRAPNLDKMADNLLAAADKNAL [Y22N] | 3.3
YTGRAPNLDKMADNLLAAADKKAL [Y22K] | 3.07
YTGRAPNLDKMADNLLAAADKSAL [Y22S] | 3.66
YTGRAPNLDKMADNLLAAADKDAL [Y22D] | 2.03
YTGRAPNLDKMADNLLAAADKFAL [Y22F] | 1.92
YTGRAPNLDKMADNLLAAADKMAL [Y22M] | 1.93
YTGRAPNLDKMADNLLAAADKQAL [Y22Q] | 2.17
YTGRAPNLDKMADNLLAAADKIAL [Y22I] | 2.22
YTGRAPNLDKMADNLLAAADKWAL [Y22W] | 1.67
YTGRAPNLDKMADNLLAAADKEAL [Y22E] | 3.04
